Assay: soluble on expression in E. coli; label from the status in PepcDB or PDB records

| Sequence | soluble on expression in E. coli |
| --- | --- |
| MKFTELTVKEFENFVQNPSLESHYFQVKENIATRESDGFQVVLLGVKDDDNRVIAASLFSKIPTMGSYVYYSNRGPVMDYSDLGLVDFYLKELDKYLHQHQCLYVKLDPYWLYQVYDKDINPLTEKNDALVNLFKSHGYDHHGFTTQYDSSSQVRWMGVLDLEGKTPASLRKEFDSQRKRNINKAINYGVKVRFLSKDEFGLFLDLYRETEARTGFASKTDDYFYNFIEHYGDKVLVPLAYIDLNEYIQHLQESLNDKENRRDDMMAKENKTDKQLKKIAELDKQIDHDKKELLQASELRQTDGEILNLASGVYFANAYEVNYFSGGSSEKYNQYMGPYAMHWHMINYCFDNGYDRYNFYGLSGDFTENSEDYGVYRFKRGFNVRIEELIGDFYKPINKVKYWLFNTLDRIRNKLKK | not soluble |
| MNIGSAIREIRQRRGITIAQICEGTGLSKGFMSQVENNKTSPSISTLETISNFLNVPLPYLLLEQKDRLKIVKKEERKYSVYGKDEQRIEHVAEQGGLRLSLVEIPTGFPKENSPNAHEGEECHLVLRGKLEVQHGEDIAIVEEGDSFSWNACVPHIVRNIGEETALLLISSYAENRQRVY | not soluble |
| MLQISHLYADYGGKPALEDINLTLESGELLVVLGPSGCGKTTLLNLIAGFVPYQHGSIQLAGKRIEGPGAERGVVFQNEGLLPWRNVQDNVAFGLQLAGIEKMQRLEIAHQMLKKVGLEGAEKRYIWQLSGGQRQRVGIARALAANPQLLLLDEPFGALDAFTRDQMQTLLLKLWQETGKQVLLITHDIEEAVFMATELVLLSSGPGRVLERLPLNFARRFVAGESSRSIKSDPQFIAMREYVLSRVFEQREAFS | soluble |
| MGSDKIHHHHHHMSKSEQISHMTDVMAKFVGYTGKVLPDDVTAKLEDLHKKETSKLADVIFTTMIENQRLAKELDRPSCQDTGVIQFLVECGTNFPLIGELEALLREAVIKATVDSPLRHNSVETFDEYNTGKNVGKGTPTVFWEIVPNSDQCSIYTYMAGGGCSLPGKAMVLMPGAGYEGVTRFVLDVMTSYGLNACPPLLVGVGVATSVETAALLSKKALMRPIGSHNENERAASLEKMLEDGINKIGLGPQGMSGNTSVMGVNIENTARHPSTIGVAVNVGCWSHRKGHIVFDAALNYTITSHSGVNF | not soluble |
| MSKKKQDVSIVRSSAAEYLTFIAAMGDQSQSVEMRYEDENIWLTQKMMASLYDVTVPAINQHLKRIFDDGELLPEAVLKDYLITAADGKQYRTKHYNLQAIISVGFKINNVRAVQFRKWAGQIVKDYTIQGWTMDVERLKKGHLFTDEYFDRQLEYIREIRLSERKFYQKVTDLYATAFDYDKDALTTREFFALVQNKLHWAVHRHTAAELIVSRADAGRTNMGLTHWAAAPQGKIIKSDVSIAKNYLNVQEMEYLERIVSIYLDFAELQAMRKIPMSMQDWARRLDGFLEFNGNEILMGPGKVSQEQAKLHAESEFEQYRIVQDRLFQSDFDRLLLQLESKNKEEGQ | not soluble |
| MNMNAKIIDQDNKGIGVRVHDNDETEHTVAVGFDGEIQGHSQDGYPDDPAKRTGKENEYVSQARRYAKYYVAKEKGYDVLPWDRDTAAMQRVQTAIESLSDEDFEKYFGTYFDQINSRLPNVTAPVPEPDAVGDDEFVLYLLDVYLDEAGRIEAVSDIHFLYLDDNRERQVVLGDQPLNRDPDARLQLKPNYLPSLEVAQEFFVYHLRCQIRDCYLLRGEEPPEQYRVIGPGLYDAATRYLYEDRPYRPYHKLHADIPGYSLEFDYGFGEQGKEMAKIAGAVADNK | not soluble |
| MTIEFINCAGCKAKIAEEDVEKNKVVFFLNRMWHRDHIQCIFCKLQISDNRYFRSSIDPMKPSCYACHIQTNHPSCTGCSLPVIERGLVAFNRLFHIDCFRCAICNKTIPQRKGFYERDMMFYDDVCYMLHIKDVL | not soluble |
| MSLDSDPDTLVVHTQLGTTAPGSPTYLAAVDRFREENPGVKIKNLVNGDDLAQVYETSRLARKEADVVMVNLYDKTLAWTDVGATVDVKPYLDDWGLRGRVLPAALADWTDDEGRVRAFPYFATNWPVAYNRALLDRAGVDAIPTTGDQLIAAARKLRAKGIAPVTVGGNDWTGQKLLAQIIQTFLSQDEARHVYSTGDFGVRGARLGIEYFAHLRDAGVFADKAQGLTSDSMTTQFNTEEAAVQSAMSSALAKVPEKVAGHTEVGGWPLADGAAHDGPTVIRAYTLIGFWISPNGVRKIEQVEKFLRFMYRPDVVARFVTESGRDMALRTDAVSTGFPLVGAAQRLGSEVSQVLLPDVYVPPAAAQPLITATSTSFTRGTSPARVRAALESAYRSVEGHHHHHH | soluble |
| MMTTIVMESTTEKVCEASSDACPKLETMFDATPQIVEIDGCQDITCPGNAVPYLVATFPASEIEPFYPMDVVNPFNVIPPSTISGSVIDYYGKICDGGVWKFTKYPDGIHVNDSDTIMGEDGSLTGKKSTLLVVTWYGFC | not soluble |
| MDYYRVGTLVNTHGIRGEVKVVVVTDFPEERFKVGQQLSLFKTPDETTGGITVKIAKAREQKGLYFLTFEGLDNINDVERYKGWTIKVPAEALHALPAGEYYYHQIVGLQVVTTADEPLGTIKEILSPGANDVWVVKRDHGQSDVLLPKIPQVIKDVDLDAGVVTVELMEGLIDLEHHHHHH | soluble |
| MGSDKIHHHHHHMSEFDAIFVGAGHNSLACAAHLALKGWKTGIFERSSTIGGAVQTREFTLPGFRHDFGAMNLSLFAGSAFHRKYANELKTQGLEFAPVADCFASAFPDGRWFGVSNDLEKTASRMAAFSAADAATWRKLVAAFPGEAEHLFRLLGSPMSARALAGTAWNLWRKKGVAGALDTGRLLLSSPRTWLEETFESPYVRATLATWGMHLDFAPDIAGGAVFPYLESMANQSFGMVLGKGGADTIIRALAGMVTSAGGKIVTGAEVSEITVSNGKATGVRLTSGETHTATKAVIAGVAPKALTGTLLPGGSGNAGFDTAMKKFRYAPGTMMIHLALDELPGWRAGSELRQFAYVHLSPSLDAMSRTYQQAMAGMLPDEPVLVVGQPTAIDPSRAPQGKHVLWVQVRMLPAEITGDAGGKIAPAHWDQVKDAYAERVLDIIETYAPGLRSKILGRSVFSPIDLERENPNLVGGDQVCGSHHLAQNFLFRPARGYAGWNTPVGNLHLTGAATWPGAGTGAASGFMLAQQLGGR | not soluble |
| MGSDKIHHHHHHMSHLALQPGFDFQQAGKEVLEIEREGLAELDQYINQHFTLACEKMFNCTGKVVVMGMGKSGHIGRKMAATFASTGTSSFFVHPGEAAHGDLGMVTPQDVVIAISNSGESSEIAALIPVLKRLHVPLICITGRPESSMARAADVHLCVKVPKEACPLGLAPTSSTTATLVMGDALAVALLKARGFTAEDFALSHPGGALGRKLLLRVSDIMHTGDEIPHVNKHATLRDALLEITRKNLGMTVICDESMKIDGIFTDGDLRRVFDMGGDMRQLGIAEVMTPGGIRVRPGILAVDALNLMQSRHITSVLVADGDQLLGVLHMHDLLRAGVV | not soluble |
| GHHHHHHHHHHGLVPRGSHMNIQSIETYQVRLPLKTPFVTSYGRLEEKAFDLFVITDEQGNQGFGELVAFEQPDYVQETLVTERFIIQQHLIPLLLTEAIEQPQEVSTIFEEVKGHWMGKAALETAIWDLYAKRQQKSLTEFFGPTRRKIPVGISLGIQEDLPQLLKQVQLAVEKGYQRVKLKIRPGYDVEPVALIRQHFPNLPLMVDANSAYTLADLPQLQRLDHYQLAMIEQPFAADDFLDHAQLQRELKTRICLDENIRSLKDCQVALALGSCRSINLKIPRVGGIHEALKIAAFCQENDLLVWLGGMFESGVGRALNLQFASQPTFSFPGDISATERYFYEDIITEPFILEQGTMTVPQGLGIGVTLSQTNLLKYSQYQKIM | soluble |
| MVKVEDAIVARLESHGYHFEILVDPDAIERIRKGNIDIENDLAFPEVYKDVRKGEKASDDSLKEAFKTTVIAQVAIEIVKKGQIQLTTEQRREMYDERRKQIVNLIAREGINPQTNTPHTPYRISQAMDEAKVKIDPLKPAEDQVQNVLKAIMPIIPIRLEKAKIAVKLIGDAYGKLYGELAKSGYM | not soluble |
| MGSDKIHHHHHHMLSLRHSCPRRALKVPNPFVEEAGPQPPKVLKAPVEIQANLRLLQDSRDSLLITFADRNQRFQSFLVDIDRDRGMVALDELIPNTGERFLQNGEAFRVEAFHEGVRIAWECERPVQFGEHDGVPCYWAALPAEVLYHQRRNAYRASIKQSQPIAAEIAGEKLRAPLSGQLLDISATGAKLRFAGNVAERLHPGEIYEDFSAQLPQGAISSAIELRHVRFDEKLDATFAGVRFSEMSGLAQRQVDRFVYQLQREARRFEKDELF | not soluble |
| MSAPRLPVTVLTGFLGAGKTTLLSKLLENNKQRRLAILVNEFGEVSIDGGLLRDGENQGVEIHDLANGLVAYDDDADFLPTMLALWQRRQQIDHVLIETSGLALPSAVMAQLQSEALAPYFVLDATLAVVDTPLLLAGHFAPAGDGGKTDAVAALFDQQLGHADIVVLNKIDALSADQLLAAEEAVRKQAPSIRFIELAYEAKLDTRLTLGLHLHEASPAAHRHYGPVASMPGLAMRPLANQTLLDGHSHGGQAAHSHGLATHKHFHEQDPGWQSFMIRSKEPQCADKLAAALQAIAREEPLLRIKGFAACADSPGRLLAQGVRSRIELSRDDTLAAPRQAQLVFIGYHPSRPRVVALLRDITGAHWSLEHHHHHH | not soluble |
| MGRSHHHHHHGSLVPRGSEQGSNVNHLIKVTDQSITEGYDDSDGIIKAHDAENLIYDVTFEVDDKVKSGDTMTVNIDKNTVPSDLTDSFAIPKIKDNSGEIIATGTYDNTNKQITYTFTDYVDKYENIKAHLKLTSYIDKSKVPNNNTKLDVEYKTALSSVNKTITVEYQKPNENRTANLQSMFTNIDTKNHTVEQTIYINPLRYSAKETNVNISGNGDEGSTIIDDSTIIKVYKVGDNQNLPDSNRIYDYSEYEDVTNDDYAQLGNNNDVNINFGNIDSPYIIKVISKYDPNKDDYTTIQQTVTMQTTINEYTGEFRTASYDNTIAFSTSSGQGQGDLPPEK | soluble |
| MGSDKIHHHHHHMNDLKRLPYEPVKGLLPRPAVGTSERVITLPEPDRTSGMPLMGTLWLRKSTREFDQQPLPLKQLSELLWAAAGVNRSLGGGRTAPSPYGETVIDVYVALPAGLYRYDPVHHCLELKRAADLRSMTGYQDFVGMAPLDLVFVANHGRMQEMPPKLRETFSAAAAGAMAENAYLYCASAGLGAVVRGWLNRRQLAEHMSLNEDEEPILSQTIGRAASHVTTTQA | not soluble |
| MYQLTVFYDGTCPLCAKEMRALKQQDKNNVIKTIDIYSEVFSEYSNIDPKAANTVLHALNQKGELILGLDVTYLAWKLVGKGWLYAPLRWPGIKVIADWCYLHFAKNRYRVSYWLTGVSRCNKTSCSKLEHHHHHH | not soluble |
| ELSENFKKLMKYPYRPCTCTRCIEEQRVSAWFDERFNRSMQPLLTAKNAHLEEDTYKWWLRLQREKQPNNLNDTIRELFQVVPGNVDPLLEKRLVSCRRCAVVGNSGNLKESYYGPQIDSHDFVLRMNKAPTEGFEADVGSKTTHHFVYPESFRELAQEVSMILVPFKTTDLEWVISATTTGRISHTYVPVPAKIKVKKEKILIYHPAFIKYVFDRWLQGHGRYPSTGILSVIFSLHICDEVDLYGFGADSKGNWHHYWENNPSAGAFRKTGVHDGDFESNVTTILASINKIRIFKGR | soluble |
| MNQIWLKVCAASDMQPGTIRRVNRVGAAPLAVYRVGDQFYATEDTCTHGIASLSEGTLDGDVIECPFHGGAFNVCTGMPASSPCTVPLGVFEVEVKEGEVYVAGEKKLEHHHHHH | soluble |
| MCVRLENENFKAELSESGAELTSLKSKNTDNEYIWTANSSYWGRHAPILFPIVGKVKDNKYRIADKVYNLSQHGFARDMEFEVEDNASDRAVFKLVWNDETLEKYPYKFELRVIYVLKDSTVDVTYNVKNVDDKDIFFSIGAHPGFNCPVIGKQSENDELQFEDYYIEFEKRETTGVVKLNSSNLLSRNTSPFLYASNILNLSEKLFKQGALILKDLDSTSISLKNDKNTTSVTVSFEGFPYVGLWSKPEGAPFVCIEPWFGHADYEDFNGDFREKEDGLKLEVGKEFECTYSITIGELEHHHHHH | soluble |

Source: the DeepSol protein solubility set
